Paper PMC10593741
Each block holds one substance with its values, some of them ahead of it.

Columns and labels:
[1] = test system: ORC-JF646 (Origin Recognition Complex, HaloTag-JF646 on N-terminus of Orc3) (Saccharomyces cerevisiae); assay: single-molecule fluorescence with optical tweezers; settings: Bulk loading: 25 mM HEPES-KOH pH 7.6, 10 mM MgOAc, 100 mM KOAc, 0.02% NP40, 5% glycerol, 1 mM DTT, 5 mM ATP or ATPgS, 30 C, single-molecule buffer not …; for binding signal (% of foci in origin bin): 5 nM ORC, 5 s rapid binding, 30 min; for binding signal (% of DNA molecules with ORC): Cdc6, ATP, 30 min stable binding
[2] = test system: Histone octamer H2A(K120C)-AF488/H2B/H3/H4 (Saccharomyces cerevisiae); assay: single-molecule fluorescence of reconstituted nucleosomes; settings: 100 mM KOAc, 0.02% NP40, 5% glycerol, 1 mM DTT, 5 mM ATP or ATPgS, 30 C, single-molecule buffer not …
[3] = molecular target: H3-H4 tetramer of S. cerevisiae (on DNA: H3-H4 tetrasome) (S. cerevisiae) (UniProt P61830); assay: single-molecule photobleaching step counting, fit of a probability model; H2A^AF488 foci, chromatinized ARS1 origin, after 30 min bulk incubation with ORC^JF646 and Cdc6
[4] = molecular target: H3-H4 tetramer of S. cerevisiae (on DNA: H3-H4 tetrasome) (S. cerevisiae) (UniProt P61830); assay: single-molecule photobleaching step counting, fit of a probability model; H2A^AF488 foci, chromatinized ARS1 origin, after 30 min bulk incubation with ORC, Cdc6 and MCM^JF646/Cdt1
[5] = molecular target: H3-H4 tetramer of S. cerevisiae (on DNA: H3-H4 tetrasome) (S. cerevisiae) (UniProt P61830); assay: single-molecule photobleaching step counting, fit of a probability model; H2A^AF488 foci, chromatinized mutated origin, after 30 min bulk incubation with ORC^JF646 and Cdc6
[6] = molecular target: H3-H4 tetramer of S. cerevisiae (on DNA: H3-H4 tetrasome) (S. cerevisiae) (UniProt P61830); assay: single-molecule photobleaching step counting, fit of a probability model; H2A^AF488 foci at the chromatinized ARS1 origin, imaged immediately after introduction into the flow cell; p_label fixed at 0.81
[7] = molecular target: H3-H4 tetramer of S. cerevisiae (on DNA: H3-H4 tetrasome) (S. cerevisiae) (UniProt P61830); assay: single-molecule photobleaching step counting, fit of a probability model; H2A^AF488 foci, chromatinized ARS1 origin, after 30 min bulk incubation in buffer only
[8] = molecular target: H3-H4 tetramer of S. cerevisiae (on DNA: H3-H4 tetrasome) (S. cerevisiae) (UniProt P61830); assay: single-molecule photobleaching step counting, fit of a probability model; H2A^AF488 foci, chromatinized mutated origin, after 30 min bulk incubation with ORC, Cdc6 and MCM^JF646/Cdt1

Substance: 10.4 kbp DNA, ARS1 origin, bare
- binding signal (% of foci in origin bin) [1]: 30
- binding signal (% of DNA molecules with ORC) ([1]; 61% of foci in origin bin): 79
- binding signal (% of H2A foci in origin bin) ([2]; after 30 min with ORC-JF646 and Cdc6, Bulk loading: 25 mM HEPES-KOH pH 7.6, 10 mM MgOAc): 49
- binding signal (% of H2A foci in origin bin) ([2]; salt-gradient dialysis, after 30 min in buffer, chromatinized form is N2, Bulk loading: 25 mM HEPES-KOH pH 7.6, 10 mM MgOAc): 80

Substance: 10.4 kbp DNA, ARS1 origin, chromatinized (two nucleosomes)
- binding signal (% of foci in origin bin) ([1]; nucleosomes): 39
- binding signal (% of DNA molecules with ORC) ([1]; nucleosomes, 51% of foci in origin bin): 41

- ph2a (probability of H2A-H2B dimer association with the H3-H4 tetrasome) [3]: 0.81
- ph2a (probability of H2A-H2B dimer association with the H3-H4 tetrasome) [4]: 0.84
- ph2a (probability of H2A-H2B dimer association with the H3-H4 tetrasome) [5]: 0.6
- ph2a (probability of H2A-H2B dimer association with the H3-H4 tetrasome) [6]: 0.77
- ph2a (probability of H2A-H2B dimer association with the H3-H4 tetrasome) [7]: 0.73
- ph2a (probability of H2A-H2B dimer association with the H3-H4 tetrasome) [8]: 0.91
Substance: H2A^AF488-H2B dimer (S. cerevisiae H2A K120C labelled with AF488, with H2B) (from UniProt P04911 2-132; P02293 5-131) (complex)
